From patent publication US20040259122A1 (MICHIGAN STATE UNIVERSITY, published 2004)

T1: Ssn8 (activation domain fusion prey) (UniProt P47821 1-323)
T1 construct: also called Srb11; not shown: not described
T1 sequence (looked up): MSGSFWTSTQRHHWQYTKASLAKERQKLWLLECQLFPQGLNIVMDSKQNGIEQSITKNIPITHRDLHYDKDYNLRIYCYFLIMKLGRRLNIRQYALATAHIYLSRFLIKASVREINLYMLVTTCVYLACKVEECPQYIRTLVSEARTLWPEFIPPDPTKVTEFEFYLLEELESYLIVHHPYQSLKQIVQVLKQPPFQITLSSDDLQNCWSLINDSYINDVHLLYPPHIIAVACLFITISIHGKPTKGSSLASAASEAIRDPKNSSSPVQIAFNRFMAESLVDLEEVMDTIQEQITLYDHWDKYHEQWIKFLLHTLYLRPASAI

T2: YDR428c (activation domain fusion prey) (UniProt Q04066 1-261)
T2 construct: not shown: not described
T2 sequence (looked up): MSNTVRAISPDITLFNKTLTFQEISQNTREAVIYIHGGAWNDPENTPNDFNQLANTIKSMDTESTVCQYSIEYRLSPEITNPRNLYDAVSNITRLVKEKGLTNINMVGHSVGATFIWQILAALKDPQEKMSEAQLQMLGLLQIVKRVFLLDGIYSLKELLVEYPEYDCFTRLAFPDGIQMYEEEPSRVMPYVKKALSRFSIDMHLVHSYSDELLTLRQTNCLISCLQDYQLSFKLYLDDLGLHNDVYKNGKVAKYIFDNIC

T3: Tfb3 (activation domain fusion prey) (UniProt Q03290 1-321)
T3 construct: not shown: not described
T3 sequence (looked up): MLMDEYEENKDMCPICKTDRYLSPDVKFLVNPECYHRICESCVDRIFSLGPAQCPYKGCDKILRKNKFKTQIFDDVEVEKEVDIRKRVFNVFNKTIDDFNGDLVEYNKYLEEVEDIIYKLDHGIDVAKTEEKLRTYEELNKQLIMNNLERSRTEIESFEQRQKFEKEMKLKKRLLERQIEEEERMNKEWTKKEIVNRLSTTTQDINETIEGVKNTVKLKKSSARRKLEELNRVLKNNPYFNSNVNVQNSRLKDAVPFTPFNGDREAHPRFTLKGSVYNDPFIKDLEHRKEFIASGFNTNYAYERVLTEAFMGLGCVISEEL

T4: Whi2 (activation domain fusion prey) (UniProt P12611 1-486)
T4 construct: not shown: not described
T4 sequence (looked up): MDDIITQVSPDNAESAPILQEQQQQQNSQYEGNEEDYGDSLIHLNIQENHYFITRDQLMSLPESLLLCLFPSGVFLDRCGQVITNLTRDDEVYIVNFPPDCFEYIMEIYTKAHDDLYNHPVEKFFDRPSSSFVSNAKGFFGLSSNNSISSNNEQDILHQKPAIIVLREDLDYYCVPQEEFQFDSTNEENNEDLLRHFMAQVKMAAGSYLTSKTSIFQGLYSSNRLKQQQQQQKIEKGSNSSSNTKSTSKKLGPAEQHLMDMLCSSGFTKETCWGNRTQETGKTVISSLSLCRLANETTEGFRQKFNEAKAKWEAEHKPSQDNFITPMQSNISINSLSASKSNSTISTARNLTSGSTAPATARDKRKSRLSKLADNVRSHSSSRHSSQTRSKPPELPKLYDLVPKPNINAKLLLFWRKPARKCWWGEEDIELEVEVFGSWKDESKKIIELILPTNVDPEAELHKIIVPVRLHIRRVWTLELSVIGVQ

T5: Fcp1 (activation domain fusion prey) (UniProt Q03254 1-732)
T5 construct: not shown: not described
T5 sequence (looked up): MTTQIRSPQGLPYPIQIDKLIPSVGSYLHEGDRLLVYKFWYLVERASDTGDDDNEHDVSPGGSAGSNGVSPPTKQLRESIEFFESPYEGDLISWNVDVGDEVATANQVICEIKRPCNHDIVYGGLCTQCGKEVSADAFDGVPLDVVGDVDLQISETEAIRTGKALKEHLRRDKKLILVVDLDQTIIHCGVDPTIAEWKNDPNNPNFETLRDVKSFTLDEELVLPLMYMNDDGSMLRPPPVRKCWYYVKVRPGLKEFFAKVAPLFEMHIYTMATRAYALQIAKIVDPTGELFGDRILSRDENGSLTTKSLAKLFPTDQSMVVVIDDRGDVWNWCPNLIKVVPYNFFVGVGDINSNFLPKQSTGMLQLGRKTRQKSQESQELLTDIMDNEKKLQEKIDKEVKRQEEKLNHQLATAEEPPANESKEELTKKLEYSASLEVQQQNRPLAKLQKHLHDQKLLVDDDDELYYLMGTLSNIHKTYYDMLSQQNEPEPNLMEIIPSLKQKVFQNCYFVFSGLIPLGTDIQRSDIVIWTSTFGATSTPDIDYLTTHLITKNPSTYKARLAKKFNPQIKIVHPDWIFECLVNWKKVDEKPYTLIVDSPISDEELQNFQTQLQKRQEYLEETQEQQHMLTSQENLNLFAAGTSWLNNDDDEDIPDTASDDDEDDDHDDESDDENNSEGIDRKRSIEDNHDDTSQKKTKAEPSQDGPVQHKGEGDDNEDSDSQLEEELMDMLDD


Key:
Test in all cases: yeast two-hybrid, growth in the presence of 3-AT
[1] = biological target: T1, Ssn8 (activation domain fusion prey)
Method: (§1) Identification of proteins that interact specifically with the phosphorylated CTD. […] Proteins that interact specifically with the CTD-Kin28 (wildtype) but neither of the other two baits are considered phosphorylated CTD-interacting proteins. Yeast strains containing one of the three baits and a variety of preys (activation domain fusion proteins) were tested for their ability to grow in the presence of different concentration of 3-AT. The ability to grow in such medium indicates stable interactions between the bait(s) and the prey(s). The following proteins (numbered 1-7) are considered phosphorylated CTD-interacting proteins: Fcp1 (a phosphatase known to act on phosphorylated CTD), Ssn8 (or Srb11, a component of the RNA polymerase II holoenzyme), Tfb3 (a component of the RNA polymerase II holoenzyme), Whi2 (a protein involved in cellular growth and a component of a protein phosphatase complex containing the Psr1 catalytic subunit), and three novel proteins (YMR181c, YPL229w, and YDR428c) whose functional links to CTD phosphorylation are novel. In addition, previously known (i.e. Ccl1 and Pcl10) and unknown (YDL100c) Kin28-interacting proteins were also identified in this screen (A-C). Several putative phosphorylated CTD interacting proteins are not labeled due to the current lack of the sequence information.

[2] = biological target: T2, YDR428c (activation domain fusion prey)
Method: as §1

[3] = biological target: T3, Tfb3 (activation domain fusion prey)
Method: as §1

[4] = biological target: T4, Whi2 (activation domain fusion prey)
Method: as §1

[5] = biological target: T5, Fcp1 (activation domain fusion prey)
Method: as §1

Row | Binder | binding result [1] | binding result [2] | binding result [3] | binding result [4] | binding result [5]
1 | CTD fused to the wildtype Kin28 (pMK500) (other, CTD phosphorylated at the fifth residue (Ser5) by the tethered wildtype Kin28, also called CTD-Kin28 (wildtype); phosphorylated CTD) MKLLSSIEQACDICRLKKLKCSKEKPKCAKCLKNNWECRYSPKTKRSPLTRAHLTEVESRLERLEQLFLLIFPREDLDMILKMDSLQDIKALLTGLFVQDNVNKDAVTDRLASVETDMPLTLRQHRISATSSSEESSNKGQRQLTVSNYLFDDEDTPPNPKKEIELENLYFQGEFQYSPTSPSYSLTSPSYSPTSPSLTTMAMKVNMEYTKEKKVGEGTYAVVYLGCQHSTGRKIAIKEIKTSEFKDGLDMSAIREVKYLQEMQHPNVIELIDIFMAYDNLNLVLEFLPTDLEVVIKDKSILFTPADIKAWMLMTLRGVYHCHRNFILHRDLKPNNLLFSPDGQIKVADFGLARAIPAPHEILTSNVVTRWYRAPELLFGAKHYTSAIDIWSVGVIFAELMLRIPYLPGQNDVDQMEVTFRALGTPTDRDWPEVSSFMTYNKLQIYPPPSRDELRKRFIAASEYALDFMCGMLTMNPQKRWTAVQCLESDYFKELPPPSDPSSIKIRNVMAIPGGGRIFYPYDVPDYAGYPYDVPDYAGSYPYDVPDYAAQCGRSS | binds | binds | binds | binds | binds
2 | CTD fused to the mutant Kin28 (pDG502) (other, also called CTD-Kin28 mutant) MKLLSSIEQACDICRLKKLKCSKEKPKCAKCLKNNWECRYSPKTKRSPLTRAHLTEVESRLERLEQLFLLIFPREDLDMILKMDSLQDIKALLTGLFVQDNVNKDAVTDRLASVETDMPLTLRQHRISATSSSEESSNKGQRQLTVSNYLFDDEDTPPNPKKEIELENLYFQGEFQYSPTSPSYSLTSPSYSPTSPSLTTMAMKVNMEYTKEKKVGEGTYAVVYLGCQHSTGRKIAIKEIKTSEFKDGLDMSAIRQVKYLQEMQHPNVIELIDIFMAYDNLNLVLEFLPTDLEVVIKDKSILFTPADIKAWMLMTLRGVYHCHRNFILHRDLKPNNLLFSPDGQIKVADFGLARAIPAPHEILTSNVVTRWYRAPELLFGAKHYTSAIDIWSVGVIFAELMLRIPYLPGQNDVDQMEVTFRALGTPTDRDWPEVSSFMTYNKLQIYPPPSRDELRKRFIAASEYALDFMCGMLTMNPQKRWTAVQCLESDYFKELPPPSDPSSIKIRNVMAIPGGGRIFYPYDVPDYAGYPYDVPDYAGSYPYDVPDYAAQCGRSS | no binding | no binding | no binding | no binding | no binding
3 | Kin28 alone bait (pMK498) (other) MKLLSSIEQACDICRLKKLKCSKEKPKCAKCLKNNWECRYSPKTKRSPLTRAHLTEVESRLERLEQLFLLIFPREDLDMILKMDSLQDIKALLTGLFVQDNVNKDAVTDRLASVETDMPLTLRQHRISATSSSEESSNKGQRQLTVSNYLFDDEDTPPNPKKEIELENLYFQGEFQLTTMAMKVNMEYTKEKKVGEGTYAVVYLGCQHSTGRKIAIKEIKTSEFKDGLDMSAIREVKYLQEMQHPNVIELIDIFMAYDNLNLVLEFLPTDLEVVIKDKSILFTPADIKAWMLMTLRGVYHCHRNFILHRDLKPNNLLFSPDGQIKVADFGLARAIPAPHEILTSNVVTRWYRAPELLFGAKHYTSAIDIWSVGVIFAELMLRIPYLPGQNDVDQMEVTFRALGTPTDRDWPEVSSFMTYNKLQIYPPPSRDELRKRFIAASEYALDFMCGMLTMNPQKRWTAVQCLESDYFKELPPPSDPSSIKIRNVMAIPGGGRIFYPYDVPDYAGYPYDVPDYAGSYPYDVPDYAAQCGRSS | no binding | no binding | no binding | no binding | no binding
